The supplement of paper PMC9112550, “Optimization of the antimicrobial peptide Bac7 by deep mutational scanning” (BMC Biology, 2022)

Tested on: Escherichia coli TOP10
Assay: shrunken log2 fold change of peptide-encoding DNA abundance (4.5 h post-induction vs induction); higher = less antimicrobial activity (less host growth inhibition)
Conditions: time post-induction: 4.5 h; library: site-saturation at positions 5, 18, 19, 20
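Note: peptides expressed intracellularly from a pBAD plasmid library in pooled LB shake-flask culture, induced with 0.3% L-arabinose, DNA abundance read by NGS, three biological replicates, DESeq2 with apeglm shrinkage.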

Row | Sequence | shrunken log2 fold change
1 | RRIRFRPPRLPRPRPRPEDCPRP | 0.121
2 | RRIRFRPPRLPRPRPRPEDKPRP | -0.0503
3 | RRIRFRPPRLPRPRPRPEEEPRP | 0.78
4 | RRIRFRPPRLPRPRPRPEFCPRP | 0.139
5 | RRIRFRPPRLPRPRPRPEGNPRP | -0.0429
6 | RRIRFRPPRLPRPRPRPEGPPRP | 0.0494
7 | RRIRFRPPRLPRPRPRPEGRPRP | -0.145
8 | RRIRFRPPRLPRPRPRPEGTPRP | 0.055
9 | RRIRFRPPRLPRPRPRPEMEPRP | 0.252
10 | RRIRFRPPRLPRPRPRPENCPRP | -0.855
11 | RRIRFRPPRLPRPRPRPEPWPRP | 0.172
12 | RRIRFRPPRLPRPRPRPEQMPRP | 0.19
13 | RRIRFRPPRLPRPRPRPEQSPRP | 0.0672
14 | RRIRFRPPRLPRPRPRPEQVPRP | 0.0138
15 | RRIRFRPPRLPRPRPRPERHPRP | -0.00647
16 | RRIRFRPPRLPRPRPRPEWMPRP | 0.236
17 | RRIRFRPPRLPRPRPRPEYNPRP | -0.113
18 | RRIRFRPPRLPRPRPRPFAEPRP | -0.348
19 | RRIRFRPPRLPRPRPRPFCYPRP | -0.372
20 | RRIRFRPPRLPRPRPRPFDMPRP | -0.294
21 | RRIRFRPPRLPRPRPRPFFFPRP | 0.121
22 | RRIRFRPPRLPRPRPRPFFGPRP | 0.0944
23 | RRIRFRPPRLPRPRPRPFFHPRP | -0.18
24 | RRIRFRPPRLPRPRPRPFHAPRP | -0.393
25 | RRIRFRPPRLPRPRPRPFIRPRP | -0.588

Row | Sequence | shrunken log2 fold change
26 | RRIRFRPPRLPRPRPRPFKPPRP | -0.147
27 | RRIRFRPPRLPRPRPRPFMDPRP | -0.00928
28 | RRIRFRPPRLPRPRPRPFRGPRP | -0.224
29 | RRIRFRPPRLPRPRPRPFRNPRP | 0.0579
30 | RRIRFRPPRLPRPRPRPFSIPRP | -0.401
31 | RRIRFRPPRLPRPRPRPFSWPRP | -0.00262
32 | RRIRFRPPRLPRPRPRPFTRPRP | 0.0083
33 | RRIRFRPPRLPRPRPRPFVGPRP | -0.0219
34 | RRIRFRPPRLPRPRPRPFVYPRP | -0.413
35 | RRIRFRPPRLPRPRPRPGANPRP | -0.0673
36 | RRIRFRPPRLPRPRPRPGAYPRP | 0.116
37 | RRIRFRPPRLPRPRPRPGCFPRP | 0.0214
38 | RRIRFRPPRLPRPRPRPGCYPRP | -0.238
39 | RRIRFRPPRLPRPRPRPGEAPRP | 0.416
40 | RRIRFRPPRLPRPRPRPGGCPRP | 0.432
41 | RRIRFRPPRLPRPRPRPGHEPRP | -0.196
42 | RRIRFRPPRLPRPRPRPGIDPRP | -0.0216
43 | RRIRFRPPRLPRPRPRPGLVPRP | -0.0941
44 | RRIRFRPPRLPRPRPRPGPHPRP | 0.305
45 | RRIRFRPPRLPRPRPRPGPYPRP | -0.0125
46 | RRIRFRPPRLPRPRPRPGQVPRP | -0.131
47 | RRIRFRPPRLPRPRPRPGRPPRP | 0.514
48 | RRIRFRPPRLPRPRPRPGTYPRP | -0.851
49 | RRIRFRPPRLPRPRPRPGYIPRP | -0.0716
50 | RRIRFRPPRLPRPRPRPHACPRP | -0.867

Row | Sequence | shrunken log2 fold change
51 | RRIRFRPPRLPRPRPRPHAHPRP | -0.0397
52 | RRIRFRPPRLPRPRPRPHATPRP | -0.0624
53 | RRIRFRPPRLPRPRPRPHDDPRP | -0.531
54 | RRIRFRPPRLPRPRPRPHDRPRP | 0.0063
55 | RRIRFRPPRLPRPRPRPHDSPRP | 0.0531
56 | RRIRFRPPRLPRPRPRPHEFPRP | -0.0308
57 | RRIRFRPPRLPRPRPRPHEIPRP | -0.0536
58 | RRIRFRPPRLPRPRPRPHEPPRP | -0.164
59 | RRIRFRPPRLPRPRPRPHFEPRP | -0.185
60 | RRIRFRPPRLPRPRPRPHFLPRP | -0.827
61 | RRIRFRPPRLPRPRPRPHFPPRP | -0.212
62 | RRIRFRPPRLPRPRPRPHGAPRP | 0.109
63 | RRIRFRPPRLPRPRPRPHGTPRP | -0.134
64 | RRIRFRPPRLPRPRPRPHHDPRP | -0.379
65 | RRIRFRPPRLPRPRPRPHHIPRP | -0.822
66 | RRIRFRPPRLPRPRPRPHHVPRP | -0.323
67 | RRIRFRPPRLPRPRPRPHIHPRP | -1.17
68 | RRIRFRPPRLPRPRPRPHKCPRP | -0.106
69 | RRIRFRPPRLPRPRPRPHLQPRP | -0.144
70 | RRIRFRPPRLPRPRPRPHQCPRP | -0.315
71 | RRIRFRPPRLPRPRPRPHQIPRP | -0.387
72 | RRIRFRPPRLPRPRPRPHQMPRP | -0.037
73 | RRIRFRPPRLPRPRPRPHRMPRP | -0.15
74 | RRIRFRPPRLPRPRPRPHRRPRP | 0.189
75 | RRIRFRPPRLPRPRPRPHTRPRP | -0.223
